The text below walks through data of patent US9168297B2, “Regulation of skin pigmentation by neuregulin-1 (NRG-1)” (The United States of America, as Represented by the …, priority 2010, dated 2015).

For this assay, the system named is HEM-LP melanocytes. Briefly: Melanin content assay (melanin/protein). It counts as cell-based, human. Conditions: NRG-1 50 ng/ml. The method, then: FIGS. 6A and 6B are bar graphs illustrating the effect of NRG-1 on the pigmentation of cultured human melanocytes. FIG. 6A) Lightly-pigmented (HEM-LP) and FIG. 6B) Darkly-pigmented (HEM-DP) melanocytes were treated with or without NRG-1 (50 ng/ml) for 1, 3, 5 or 9 days and proteins were extracted from each sample. After centrifugation at 10,000 g for 15 minutes, precipitates were analyzed for melanin content, and the supernatants were analyzed for protein content. Results are the average of three studies±SD; statistically significant differences are indicated.
Melanin contents were determined by dissolving cell pellets overnight at room temperature in 200 μl 1 N NaOH, and melanin concentrations were quantitated by absorbance at 405 nm in a SpectraMax 250 ELISA reader (Molecular Devices) using a standard curve generated from synthetic melanin (Sigma-Aldrich, St. Louis, Mo.). Melanin content is expressed as μg melanin per μg protein. Each study was repeated at least three times.
The effects of NRG-1 on the pigmentation of human melanocytes were also examined. […] However, on day 9, when the cells had reached confluence, the pigmentation level of NRG-1-treated HEM-LP melanocytes was about 35% higher than the control (FIG. 6A).

B1: NRG-1: commercially available recombinant human neuregulin-1 (rhNRG-1-β1, R&D Systems), SEQ ID NO: 11 (protein)
chain: TSHLVKCAEKEKTFCVNGGECFMVKDLSNPSRYLCKCPNEFTGDRCQNYVMASFYKHLGIEFMEAEELYQK
With B1, under “day 9, confluent”, the “Pigmentation level higher than the control” value was “about 35%”. Further, for the setting “days 1 through 5, subconfluent, vs control”, the “Level of pigmentation (melanin/protein)” value is reported as “not significantly different”.
